Measured values as given in patent publication US20230312724A1 (KADMON, published 2023).
Where two headings read alike, the source gives them in different places.

What was measured:
[1] = target: T1, mouse B7-H4 expressed on cells (mouse, UniProt Q7TSP5 25-257); test: flow cytometry, mB7H4 stable cells (CHO)
T1 construct: also called cellular mB7-H4; mB7-H4/CT26
T1 sequence: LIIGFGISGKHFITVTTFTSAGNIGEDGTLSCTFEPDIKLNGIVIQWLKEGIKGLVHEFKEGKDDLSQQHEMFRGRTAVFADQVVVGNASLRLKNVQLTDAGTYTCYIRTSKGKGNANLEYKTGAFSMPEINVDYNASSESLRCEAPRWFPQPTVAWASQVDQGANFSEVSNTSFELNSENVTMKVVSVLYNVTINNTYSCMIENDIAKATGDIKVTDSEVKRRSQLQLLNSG
Protocol: (§1) ELISA experiments were performed to determine binding to hB7-H4-Fc (FIG. 4A), hB7-H4-his (FIG. 4B), hB7-H4 IgV domain (FIG. 4C), and mB7-H4 IgV domain (FIG. 4D). Flow cytrometry experiments were performed to determine binding to CHO cells expressing hB7-H4 (FIG. 4E) or mB7-H4 (FIG. 4F). […] A cross-reactive IgV binding antibody was used as a control.
(§2) Cells were harvested, washed once, and then re-suspended to the concentration of 1×10⁶ cells/ml in ice cold FACS Buffer. 25 μl of cell suspension was added to each well of a 96-well round-bottom microliter plate. Serially diluted antibodies or fusion proteins were added to each well and incubated for 1 hour at 4° C. Cells were washed three times by centrifugation at 1500 rpm for 5 minutes, and then stained with secondary antibody (1:200 dilution) for 30 min at 4° C. in the dark. Cells were washed once, re-suspended in 100 μl PBS buffer and then analyzed using Guava Flow Cytometry EasyCyte system.

[2] = target: T2, IgV domain of mouse B7-H4-Fc (mouse; human); test: ELISA, coated mB7-H4 IgV domain
T2 construct: also called mB7-H4 IgV domain
T2 sequence (chain, as listed by the source): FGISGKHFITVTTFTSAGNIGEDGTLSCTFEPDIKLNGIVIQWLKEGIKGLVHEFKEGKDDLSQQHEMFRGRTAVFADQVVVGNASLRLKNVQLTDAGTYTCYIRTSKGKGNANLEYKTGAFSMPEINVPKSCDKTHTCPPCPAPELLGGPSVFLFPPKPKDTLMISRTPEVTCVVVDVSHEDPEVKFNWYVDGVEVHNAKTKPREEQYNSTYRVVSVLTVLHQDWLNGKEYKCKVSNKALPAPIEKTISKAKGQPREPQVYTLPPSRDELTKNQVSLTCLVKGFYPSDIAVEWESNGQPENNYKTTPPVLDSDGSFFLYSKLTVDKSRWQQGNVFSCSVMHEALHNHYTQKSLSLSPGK
Protocol: as §1
(§3) About 1-2 μg/ml of human or mouse B7-H4-Fc (or his-tagged) was immobilized on ELISA plates (Immuno 2HB, Thermo scientific, cat #3455) at 4° C. overnight. After blocking the plates with 3% PBS+milk, serial diluted antibodies were added to the blocked plates and incubated at RT for 1-1.5 h. After washing the plates with PBS-T (0.05%), horse radish peroxidase (HRP)-conjugated antibody targeting the hFab was added to the plate. Signals were developed by adding 3,3′,5,5′-Tetramethylbenzidine (TMB (followed 1N of H₂SO₄ to stop the reaction. The OD at 450 nm was read by ELISA plate reader (Infinite M1000 from TECAN). GraphPad from Prism was used to plot OD450 vs. antibody concentration curve and to calculate the EC50 values.

[3] = target: T3, mB7-H4 (soluble mouse B7-H4, construct not named) (mouse, UniProt Q7TSP5 25-257, limits assumed); test: summary of ELISA and flow cytometry
T3 sequence: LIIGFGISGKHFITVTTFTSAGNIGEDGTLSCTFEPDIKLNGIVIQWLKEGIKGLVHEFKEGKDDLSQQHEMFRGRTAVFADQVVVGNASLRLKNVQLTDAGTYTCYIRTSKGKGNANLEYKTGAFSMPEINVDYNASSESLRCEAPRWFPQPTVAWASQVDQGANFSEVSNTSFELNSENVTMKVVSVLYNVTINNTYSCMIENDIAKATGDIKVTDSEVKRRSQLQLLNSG

human B7-H4-Fc [4] = target: T4, human B7-H4-Fc (human); test: ELISA, coated hB7-H4-Fc
T4 construct: also called hB7-H4-Fc; hB7-H4 Fc
T4 sequence (chain, as listed by the source): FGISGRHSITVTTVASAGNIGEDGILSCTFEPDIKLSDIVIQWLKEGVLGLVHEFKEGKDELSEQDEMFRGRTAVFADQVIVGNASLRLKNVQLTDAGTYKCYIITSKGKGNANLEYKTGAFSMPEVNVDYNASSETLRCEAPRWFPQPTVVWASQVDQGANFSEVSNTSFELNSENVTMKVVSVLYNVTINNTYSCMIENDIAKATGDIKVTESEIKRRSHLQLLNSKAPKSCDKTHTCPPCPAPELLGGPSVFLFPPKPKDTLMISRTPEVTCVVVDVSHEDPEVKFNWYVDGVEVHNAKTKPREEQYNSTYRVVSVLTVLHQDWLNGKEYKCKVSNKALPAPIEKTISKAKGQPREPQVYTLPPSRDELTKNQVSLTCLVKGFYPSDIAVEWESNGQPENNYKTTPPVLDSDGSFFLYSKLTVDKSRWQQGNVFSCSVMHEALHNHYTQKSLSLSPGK
Protocol: as §1, §3

mouse B7-H4-Fc [5] = target: T5, mouse B7-H4-Fc (mouse; human); test: ELISA, coated mB7-H4-Fc (title on the sheet: Binding to mB7H4-Fc)
T5 construct: also called mB7-H4-Fc; mB7-H4-hFc
T5 sequence (chain, as listed by the source): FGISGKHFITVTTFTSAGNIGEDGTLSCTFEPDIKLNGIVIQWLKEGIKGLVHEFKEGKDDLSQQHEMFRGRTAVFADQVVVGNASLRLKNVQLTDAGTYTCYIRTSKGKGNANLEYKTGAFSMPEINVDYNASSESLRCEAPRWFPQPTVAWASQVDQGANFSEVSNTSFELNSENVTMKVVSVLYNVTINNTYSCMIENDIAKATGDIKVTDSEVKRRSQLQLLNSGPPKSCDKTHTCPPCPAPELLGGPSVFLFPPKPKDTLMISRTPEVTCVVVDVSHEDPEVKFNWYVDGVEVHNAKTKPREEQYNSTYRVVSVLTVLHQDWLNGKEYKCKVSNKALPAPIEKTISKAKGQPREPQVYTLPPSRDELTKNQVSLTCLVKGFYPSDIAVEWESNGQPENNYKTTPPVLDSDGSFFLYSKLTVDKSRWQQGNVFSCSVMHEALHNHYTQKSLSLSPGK
Protocol: as §1, §3

human B7-H4-Fc [6] = target: T4, human B7-H4-Fc; test: SPR (Biacore)
human B7-H4-his [7] = target: T6, human B7-H4-his (human, UniProt Q7Z7D3 25-259); test: SPR (Biacore)
T6 construct: also called hB7-H4-his; hB7-H4 his; not shown: his tag
T6 sequence: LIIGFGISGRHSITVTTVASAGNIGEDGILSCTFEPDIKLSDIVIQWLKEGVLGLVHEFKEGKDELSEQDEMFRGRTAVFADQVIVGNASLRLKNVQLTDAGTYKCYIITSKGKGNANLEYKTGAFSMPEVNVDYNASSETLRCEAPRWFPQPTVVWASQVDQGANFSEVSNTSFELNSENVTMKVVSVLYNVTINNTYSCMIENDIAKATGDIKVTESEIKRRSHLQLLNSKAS

mouse B7-H4-his [8] = target: T7, mouse B7-H4-his (mouse, UniProt Q7TSP5 25-257); test: SPR (Biacore)
T7 construct: also called mB7-H4-his; mB7-H4-His; not shown: his tag
T7 sequence: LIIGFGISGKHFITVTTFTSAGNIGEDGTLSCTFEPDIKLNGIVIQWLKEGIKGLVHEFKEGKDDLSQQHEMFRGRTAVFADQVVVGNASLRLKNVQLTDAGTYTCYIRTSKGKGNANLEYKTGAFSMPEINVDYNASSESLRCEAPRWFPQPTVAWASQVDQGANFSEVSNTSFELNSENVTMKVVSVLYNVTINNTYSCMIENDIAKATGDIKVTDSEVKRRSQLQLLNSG

human B7-H4-Fc [9] = target: T4, human B7-H4-Fc; test: SPR (Biacore); remark: listed apart in the source
Outline: (§4)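 Kinetic constants came from a 1:1 Langmuir fit of binding at 25 °C in HBS-EP, pH 7.4. Analyte (100 nM to 0.1 nM) flowed for 180 s, then dissociated for 1000 or 1200 s, over amine-coupled human B7-H4-Fc, human B7-H4-his or mouse B7-H4-Fc surfaces at 50-100 RU.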

human B7-H4-his [10] = target: T6, human B7-H4-his; test: SPR (Biacore); remark: listed apart in the source
Outline: as §4

[11] = target: T8, hB7-H4 (soluble human B7-H4, construct not named) (human, UniProt Q7Z7D3 25-259, limits assumed); test: SPR (Biacore)
T8 construct: also called soluble hB7-H4
T8 sequence: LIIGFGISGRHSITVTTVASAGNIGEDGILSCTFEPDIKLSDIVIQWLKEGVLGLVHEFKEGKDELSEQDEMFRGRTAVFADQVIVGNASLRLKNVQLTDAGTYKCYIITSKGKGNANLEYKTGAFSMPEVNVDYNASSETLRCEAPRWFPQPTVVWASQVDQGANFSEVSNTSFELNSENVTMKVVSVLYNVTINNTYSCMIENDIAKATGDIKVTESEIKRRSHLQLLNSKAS
Outline: as §4

mouse B7-H4-Fc [12] = target: T5, mouse B7-H4-Fc; test: ELISA on coated mB7-H4-Fc
Protocol: as §3

[13] = target: T9, IgV domain of human B7-H4-Fc (human); test: ELISA, coated hB7-H4 IgV domain
T9 construct: also called hB7-H4 IgV domain
T9 sequence (chain, as listed by the source): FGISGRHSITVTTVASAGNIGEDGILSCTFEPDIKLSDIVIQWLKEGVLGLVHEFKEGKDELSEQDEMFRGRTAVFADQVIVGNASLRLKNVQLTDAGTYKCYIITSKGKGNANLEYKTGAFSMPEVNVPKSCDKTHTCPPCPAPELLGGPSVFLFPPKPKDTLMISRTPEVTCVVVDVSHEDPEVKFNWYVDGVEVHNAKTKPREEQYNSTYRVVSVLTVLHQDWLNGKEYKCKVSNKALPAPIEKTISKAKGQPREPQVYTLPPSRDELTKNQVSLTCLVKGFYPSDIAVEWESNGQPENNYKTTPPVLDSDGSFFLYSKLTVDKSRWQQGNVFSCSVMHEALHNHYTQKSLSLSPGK

[14] = target: T10, IgC domain of mouse B7-H4-Fc (mouse; human); test: ELISA, coated mB7-H4 IgC domain
T10 construct: also called mB7-H4 IgC domain
T10 sequence (chain, as listed by the source): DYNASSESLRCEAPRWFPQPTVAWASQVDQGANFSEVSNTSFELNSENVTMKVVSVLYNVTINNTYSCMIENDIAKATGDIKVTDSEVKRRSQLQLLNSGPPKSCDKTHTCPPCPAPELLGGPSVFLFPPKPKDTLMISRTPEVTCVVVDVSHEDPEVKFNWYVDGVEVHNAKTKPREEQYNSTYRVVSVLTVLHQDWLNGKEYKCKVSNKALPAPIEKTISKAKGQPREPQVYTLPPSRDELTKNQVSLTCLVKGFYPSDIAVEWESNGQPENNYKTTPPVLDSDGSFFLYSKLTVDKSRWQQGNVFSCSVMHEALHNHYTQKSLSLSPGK

[15] = target: T1, mouse B7-H4 expressed on cells; test: flow cytometry, CT26 cells expressing mB7-H4
[16] = target: T8, hB7-H4 (soluble human B7-H4, construct …); test: ELISA, hB7-H4
Outline: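 EC50 values come from fitted OD450-versus-antibody-concentration curves. Antibody dilution series bound for 1-1.5 h at RT to plates coated overnight at 4° C with about 1-2 μg/ml human or mouse B7-H4-Fc or His-tagged protein, milk-blocked. Detection used HRP-conjugated anti-hFab with TMB substrate and an acid stop.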

human B7-H4-his [17] = target: T6, human B7-H4-his; test: ELISA on coated hB7-H4-his
Protocol: as §3

mouse B7-H4-his [18] = target: T7, mouse B7-H4-his; test: ELISA on coated mB7-H4-his
Protocol: as §3

[19] = target: T11, human B7-H4 expressed on cells (human, UniProt Q7Z7D3 25-282); test: flow cytometry, MDA-MB-468 cells
T11 construct: Transfected CHO cells or tumor cell lines that carry hB7-H4; also called cellular hB7-H4
T11 sequence: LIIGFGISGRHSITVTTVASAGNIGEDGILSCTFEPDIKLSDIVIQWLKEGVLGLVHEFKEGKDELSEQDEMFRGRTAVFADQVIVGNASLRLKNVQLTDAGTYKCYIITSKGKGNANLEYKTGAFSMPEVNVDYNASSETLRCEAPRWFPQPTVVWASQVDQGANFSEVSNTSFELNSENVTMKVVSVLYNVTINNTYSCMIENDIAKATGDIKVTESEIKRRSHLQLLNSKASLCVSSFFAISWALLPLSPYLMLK
Protocol: as §2

[20] = target: T11, human B7-H4 expressed on cells; test: flow cytometry, SK-BR-3 cells
human B7-H4-Fc [21] = target: T4, human B7-H4-Fc; test: ELISA on coated hB7-H4-Fc
Protocol: as §3

[22] = target: T9, IgV domain of human B7-H4-Fc; test: ELISA on coated IgV domain of hB7-H4
Protocol: as §3

[23] = target: T2, IgV domain of mouse B7-H4-Fc; test: ELISA, coated mB7-H4 IgV domain; remark: listed apart in the source
[24] = target: T8, hB7-H4 (soluble human B7-H4, construct …); test: SPR (Biacore); remark: listed apart in the source
[25] = target: T12, IgC domain of human B7-H4-Fc (human); test: ELISA, coated hB7-H4 IgC domain
T12 construct: also called hB7-H4 IgC domain
T12 sequence (chain, as listed by the source): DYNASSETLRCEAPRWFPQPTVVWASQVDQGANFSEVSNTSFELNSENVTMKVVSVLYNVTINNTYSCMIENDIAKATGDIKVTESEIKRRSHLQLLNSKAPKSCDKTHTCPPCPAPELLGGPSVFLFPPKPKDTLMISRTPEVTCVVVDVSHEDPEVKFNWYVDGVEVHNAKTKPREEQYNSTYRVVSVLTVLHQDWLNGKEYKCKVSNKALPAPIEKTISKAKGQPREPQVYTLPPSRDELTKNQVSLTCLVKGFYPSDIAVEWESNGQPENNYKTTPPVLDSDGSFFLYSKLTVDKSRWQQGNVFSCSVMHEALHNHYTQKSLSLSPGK

[26] = target: T11, human B7-H4 expressed on cells; test: flow cytometry, SK-BR-3 cells; remark: listed apart in the source
Outline: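 Cell-surface binding read by flow cytometry: cells (1×10⁶/ml, cold FACS buffer) + serial dilutions of antibody or fusion protein, 1 h, 4 °C; 3 washes; secondary Ab 1:200, 30 min, 4 °C, dark.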

[27] = target: T11, human B7-H4 expressed on cells; test: flow cytometry, MX-1 cells
Protocol: as §2

[28] = target: T8, hB7-H4 (soluble human B7-H4, construct …); test: ELISA, hB7-H4; remark: listed apart in the source
Protocol: as §3

mouse B7-H4-Fc [29] = target: T5, mouse B7-H4-Fc; test: ELISA, coated mB7-H4-Fc
Protocol: (§5) ELISA experiments were performed to determine binding to hB7-H4-Fc (FIG. 5A), hB7-H4-his (FIG. 5B), mB7-H4-Fc domain (FIG. 5C), hB7-H4 IgV domain (FIG. 5D), and hB7-H4 IgC domain (FIG. 5E). Flow cytrometry experiments were performed to determine binding to CHO cells expressing hB7-H4 (FIG. 5F) or mB7-H4 (FIG. 5G). […] A cross-reactive IgV binding antibody and an IgC binding antibody were used as controls.
as §3

[30] = target: T9, IgV domain of human B7-H4-Fc; test: ELISA, coated hB7-H4 IgV domain; remark: listed apart in the source
Protocol: as §5, §3

human B7-H4-Fc [31] = target: T4, human B7-H4-Fc; test: ELISA, coated hB7-H4-Fc; remark: listed apart in the source
Protocol: as §5, §3

[32] = target: T1, mouse B7-H4 expressed on cells; test: flow cytometry, CHO cells expressing mB7-H4
Protocol: as §5, §2

human B7-H4-his [33] = target: T6, human B7-H4-his; test: ELISA, coated hB7-H4-his
Protocol: as §3

[34] = target: T12, IgC domain of human B7-H4-Fc; test: ELISA, coated hB7-H4 IgC domain; remark: listed apart in the source
Protocol: as §5, §3

B1: 4H6/4H6 (antibody, human IgG1, V domains shown)
VH: EVQLLESGGGLVQPGGSLRLSCAASGFTFSSYGMHWVRQAPGKGLEWVSGISGSGGSTYYADSVKGRFTISRDNSKNTLYLQMNSLRAEDTAVYYCARTQWRASLDPWGQGTLVNVSS
VL: DIQMTQSPSSLSASVGDRVTITCRASQDISYWLAWYQQKPGKAPKLLIYGASTLQSGVPSRFSGSGSGTDFTLTISSLQPEDFATYYCQQTTMSPYTFGQGTKVEIK
binding result [1]: no binding
binding result [2]: no binding
binding result [3]: no binding
EC50 (read off the curve) (human B7-H4-Fc [4]): ~0.01 µg/mL
binding result (mouse B7-H4-Fc [5]): no binding (tested: log 0.3 ug/ml (about 2 ug/ml))
Kd (human B7-H4-Fc [6]): 2860 pM
Kd (human B7-H4-his [7]): 4000 pM
binding result (mouse B7-H4-his [8]): no binding

B2: 3F2/50A10 (antibody, human IgG1, V domains shown)
VH: QVQLVQSGAEVKKPGASVKVSCKASGYTFTAQYMYWVRQAPGQGLEWMGRINPTSGNTVYAQKLQGRVTMTRDTSTSTVYMELSSLRSEDTAVYYCARGINWFDPWGQGTLVTVSS
VL: DIQMTQSPSSLSASVGDRVTITCQASQDISNYINWYQQKPGKAPKLLIYAASRLQSGVPSRFSGSGSGTDFTLTISSLQPEDFATYYCQQSYRSPFTFGQGTKLEIK
Kd (human B7-H4-Fc [9]): 43.3 pM
Kd (human B7-H4-his [10]): 15.5 pM
Kd [11]: 38.5 pM
binding result (mouse B7-H4-Fc [12]): no binding (tested: 10 nM)
EC50 (read off the curve) [13]: ~100 pM
binding result [14]: no binding (tested: log 1 nM (10 nM))
binding result [15]: no binding (tested: log 2 nM (100 nM))
EC50 [16]: 46 pM
EC50 (read off the curve) (human B7-H4-his [17]): ~100 pM
binding result (mouse B7-H4-his [18]): no binding (tested: 10 nM)
EC50 [19]: 416 pM
EC50 [20]: 1180 pM
EC50 (read off the curve) (human B7-H4-Fc [21]): ~70 pM
EC50 (read off the curve) [22]: ~80 pM
binding result [23]: no binding (tested: log 1 nM (10 nM))
Kd [24]: 45.4 pM
binding result [25]: no binding (tested: log 1 nM (10 nM))
EC50 [26]: 410 pM
EC50 [27]: 120 pM
EC50 [28]: 82 pM

B3: 9H2/9H2 (antibody, V domains shown)
VH: QVQLVQSGAEVKKPGSSVKVSCKASGGTFSTYAINWVRQAPGQGLEWMGGINPMFGTARYAQKFQGRVTITADESTSTAYMELSSLRSEDTAVYYCARGRLHRHWGQGTLVTVSS
VL: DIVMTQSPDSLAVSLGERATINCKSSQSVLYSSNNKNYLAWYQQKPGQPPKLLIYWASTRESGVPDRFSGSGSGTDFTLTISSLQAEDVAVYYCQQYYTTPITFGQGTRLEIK
binding result (mouse B7-H4-Fc [29]): no binding (tested: log 1 nM (10 nM))
EC50 (read off the curve) [30]: ~70 pM
EC50 (read off the curve) (human B7-H4-Fc [31]): ~70 pM
binding result [32]: no binding (tested: log 2.3 nM (about 200 nM))
binding result [3]: no binding
EC50 (read off the curve) (human B7-H4-his [33]): ~60 pM
binding result [34]: no binding (tested: log 0.3 ug/ml (about 2 ug/ml))
